Key:
human glucagon receptor = molecular target: T1, human glucagon receptor (Homo sapiens, UniProt P47871); test: cAMP response in CHO cell line expressing human glucagon receptor (CHO/GCGR); assay type: cell-based; conditions: Table 3, Fc conjugates, GLP-1, glucagon, 37° C. for 1 hour
T1 construct: host or cells: CHO DG44
Description: The PCR product was cloned into the known animal cell expression vector x0GC/dhfr to prepare a recombinant vector x0GC/GCGR.
CHO DG44 cell line cultured in DMEM/F12 (10% FBS) medium was transfected with the recombinant vector x0GC/GCGR using LIPOFECTAMINE®, and cultured in a selection medium containing 1 mg/mL G418 and 10 nM methotraxate.
(§1) The cultured cells were washed with KRB buffer and suspended in 40 ml of KRB buffer containing 1 mM IBMX, and left at room temperature for 5 minutes. […] Then, 20 mL of cell lysis buffer was added for cell lysis, and the cell lysates were applied to a cAMP assay kit (Molecular Device, USA) to measure cAMP concentrations. EC50 values were calculated therefrom, and compared to each other.
(§2) Each of the cultured transformants was washed with KRB buffer and suspended in 40 ml of KRB buffer containing 1 mM IBMX, and left at room temperature for 5 minutes. […] Then, 20 ml of cell lysis buffer was added for cell lysis, and the cell lysates were applied to a cAMP assay kit (Molecular Device, USA) to measure cAMP concentrations using a Victor (PERKIN ELMER®, USA). EC50 values were calculated therefrom, and compared to each other (Table 3).

human GLP-1 receptor = molecular target: T2, human GLP-1 receptor (Homo sapiens, UniProt P43220); test: cAMP response in CHO cell line expressing human GLP-1 receptor (CHO/GLP-1R); assay type: cell-based; conditions: Table 3, Fc conjugates, GLP-1, glucagon, 37° C. for 1 hour
T2 construct: host or cells: CHO DG44
T2 sequence (P43220 24-463): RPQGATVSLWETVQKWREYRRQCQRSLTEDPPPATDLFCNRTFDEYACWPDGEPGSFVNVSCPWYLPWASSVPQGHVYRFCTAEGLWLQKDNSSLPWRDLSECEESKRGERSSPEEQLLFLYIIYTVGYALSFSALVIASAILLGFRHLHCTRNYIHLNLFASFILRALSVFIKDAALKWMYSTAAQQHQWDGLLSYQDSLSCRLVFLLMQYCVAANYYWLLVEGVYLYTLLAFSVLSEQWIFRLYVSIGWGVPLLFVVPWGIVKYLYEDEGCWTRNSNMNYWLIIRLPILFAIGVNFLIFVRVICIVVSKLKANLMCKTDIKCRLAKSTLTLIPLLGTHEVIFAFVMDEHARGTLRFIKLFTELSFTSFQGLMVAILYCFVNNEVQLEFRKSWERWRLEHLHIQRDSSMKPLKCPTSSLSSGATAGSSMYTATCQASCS
Description: The PCR product was cloned into the known animal cell expression vector x0GC/dhfr to prepare a recombinant vector x0GC/GLP1R.
CHO DG44 cell line cultured in DMEM/F12 (10% FBS) medium was transfected with the recombinant vector x0GC/GLP1R using LIPOFECTAMINE® (INVITROGEN®, USA), and cultured in a selection medium containing 1 mg/mL G418 and 10 nM methotraxate.
as §1, §2

[1] = taken for 1 year; cited from earlier work
[2] = in vivo; cited from earlier work

T1 sequence (P47871 26-477): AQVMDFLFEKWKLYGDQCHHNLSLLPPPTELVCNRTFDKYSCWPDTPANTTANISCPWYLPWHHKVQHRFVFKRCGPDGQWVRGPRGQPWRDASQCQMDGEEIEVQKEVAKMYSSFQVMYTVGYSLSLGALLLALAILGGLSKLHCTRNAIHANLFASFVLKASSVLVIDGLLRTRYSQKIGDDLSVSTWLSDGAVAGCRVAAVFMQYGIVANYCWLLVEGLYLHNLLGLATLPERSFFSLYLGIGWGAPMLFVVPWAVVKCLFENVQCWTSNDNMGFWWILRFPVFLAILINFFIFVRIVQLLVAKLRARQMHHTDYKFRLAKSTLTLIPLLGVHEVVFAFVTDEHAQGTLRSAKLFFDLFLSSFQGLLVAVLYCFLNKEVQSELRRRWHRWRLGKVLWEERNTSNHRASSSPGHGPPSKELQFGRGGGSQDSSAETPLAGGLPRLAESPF

Compound | EC50 (human glucagon receptor) [nM] | EC50 (human GLP-1 receptor) [nM] | weight loss [1] [kg] | side-effect [2]
SEQ ID NO. 23 - Fc conjugates: conjugate of oxyntomodulin derivative (SEQ ID NO. 23), cysteine 24, MAL-10K-ALD PEG and immunoglobulin Fc (HXQGTFTSDYSKYLDEKRAKEFVCWLMNT; not fully specified; conjugate chemistry not built; chains of the parent or of the whole protein) | 15.8 | 5.4 |  | 
CCCCCCCCCCC[C@@H](C[C@@H]1OC(=O)[C@H]1CCCCCC)OC(=O)[C@H](CC(C)C)NC=O [Orlistat] |  |  | 4 | 
CC(C)CC(N(C)C)C1(c2ccc(Cl)cc2)CCC1 (stereo not drawn) [Sibutramine] |  |  |  | cardiovascular side-effects
Cc1c(C(=O)NN2CCCCC2)nn(-c2ccc(Cl)cc2Cl)c1-c1ccc(Cl)cc1 [Rimonabant] |  |  |  | side-effect of central nerve disorder
SEQ ID NO. 33 - Fc conjugates: conjugate of oxyntomodulin derivative (SEQ ID NO. 33), cysteine 30, MAL-10K-ALD PEG and immunoglobulin Fc (HXQGTFTSDYAKYLDEKRAKEFVQWLMNTC; conjugate chemistry not built; chains of the parent or of the whole protein) | 85.9 | 11.7 |  | 
SEQ ID NO. 34 - Fc conjugates: conjugate of oxyntomodulin derivative (SEQ ID NO. 34), cysteine 30, MAL-10K-ALD PEG and immunoglobulin Fc (YXQGTFTSDYSKYLDEKRAKEFVQWLMNTC; conjugate chemistry not built; chains of the parent or of the whole protein) | 8 | 168 |  | 
